Measurements reported in the supplement of paper PMC7877785.
± gives the uncertainty stated by the source.

Test: self-splicing fitness, log relative to wild type (ln ratio); higher = more splicing; Tetrahymena group I intron in knt gene, E. coli kanamycin selection, DiMSum; sequences stand for … in CUCUCU…GGAGGGAAAAGUUAUCAGGCAUGCACCUGGUAGCUAGUCUUUAAACCAAUAGAUUGCAUCGGUUUAAAAGGCAAGACCGUCAAAUUGCGGGAAAGGGGUCAACAGCCGUUCAGUACCAAGUCUCAGGGGAAACUUUGAGAUGGCCUUGCAAAGGGUAUGGUAAUAAGCUGACGGACAUGGUCCUAACCACGCAGCCAAGUCCUAAGUCAACAGAUCUUCUGUUGAUAUGGAUGCAGUUCACAGACUAAAUGUCGGUCGGGGAAGAUGUAUUCUUCUCAUAAGAUAUAGUCGGACCUCUCCUUAAUGGGAGCUAGCGGAUGAAGUGAUGCAACACUGGAGCCGCUGGGAACUAAUUUGUAUGCGAAAGUAUAUUGAUUAGUUUUGGAGUACUCGUGGUCG
Method in brief: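 A randomised library covering all eight P1ex-region intron nucleotides was built with the intron in the knt kanamycin-resistance gene on pET-22b(+) and held in E. coli BL21(DE3). Cells were grown overnight at 37°C or 30°C on LB agar, with or without 25 μg/mL kanamycin, plus 100 μg/mL carbenicillin, 50 μM IPTG and 0.2% rhamnose, and pooled colonies were amplicon-sequenced on an Illumina HiSeq 2500. DiMSum fitness is the error-weighted combination of wild-type-normalised replicate fold changes, kanamycin versus none.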

Row | Sequence | self-splicing fitness (ln) (30 °C) | self-splicing fitness (ln) (37 °C)
1 | UGUUAGCAAUAUUACGCCCU | -0.0997 ± 0.17 | 0.532 ± 0.18
2 | UGUUAGCAAUAUUACGCCGU | -1.98 ± 0.44 | -0.747 ± 0.42
3 | UGUUAGCAAUAUUACGCGAG | -3.15 ± 0.25 | -2.42 ± 0.19
4 | UGUUAGCAAUAUUACGCGCU | -1.36 ± 0.13 | -0.409 ± 0.12
5 | UGUUAGCAAUAUUACGCUCU | -1.66 ± 0.16 | -0.371 ± 0.16
6 | UGUUAGCAAUAUUACGCUUU | -2.85 ± 0.2 | -1.32 ± 0.14
7 | UGUUAGCAAUAUUACGGAUA | -1.36 ± 0.13 | -1.45 ± 0.12
8 | UGUUAGCAAUAUUACGGAUU | -2.53 ± 0.16 | -0.414 ± 0.13
9 | UGUUAGCAAUAUUACGGCCG | 0.71 ± 0.11 | 0.567 ± 0.17
10 | UGUUAGCAAUAUUACGGCCU | -0.213 ± 0.27 | 0.286 ± 0.25
11 | UGUUAGCAAUAUUACGGGGU | -2.47 ± 0.26 | –
12 | UGUUAGCAAUAUUACGGUGG | -1.95 ± 0.16 | -0.147 ± 0.16
13 | UGUUAGCAAUAUUACGGUGU | -2.57 ± 0.17 | -1.92 ± 0.18
14 | UGUUAGCAAUAUUACGUGAC | -2.93 ± 0.31 | -2.01 ± 0.29
15 | UGUUAGCAAUAUUACGUGAG | -1.02 ± 0.051 | -0.331 ± 0.065
16 | UGUUAGCAAUAUUACGUGAU | -1.77 ± 0.14 | -1.96 ± 0.25
17 | UUAAAGCAAUAUUACGAAAU | -3.49 ± 0.3 | -2.12 ± 0.24
18 | UUAAAGCAAUAUUACGAAGU | -3.67 ± 0.44 | -2.47 ± 0.39
19 | UUAAAGCAAUAUUACGAAUA | -1.71 ± 0.088 | -0.164 ± 0.12
20 | UUAAAGCAAUAUUACGACGC | -0.776 ± 0.077 | 0.177 ± 0.11
21 | UUAAAGCAAUAUUACGAUCA | 0.0315 ± 0.083 | 0.412 ± 0.097
22 | UUAAAGCAAUAUUACGAUGU | -1.91 ± 0.1 | -0.671 ± 0.15
23 | UUAAAGCAAUAUUACGAUUU | -0.89 ± 0.063 | 0.0458 ± 0.099
24 | UUAAAGCAAUAUUACGCCAU | -2.96 ± 0.17 | -1.14 ± 0.15

Row | Sequence | self-splicing fitness (ln) (30 °C) | self-splicing fitness (ln) (37 °C)
25 | UUAAAGCAAUAUUACGCCGA | -0.193 ± 0.12 | 0.491 ± 0.15
26 | UUAAAGCAAUAUUACGCCUA | 0.0988 ± 0.091 | 0.8 ± 0.14
27 | UUAAAGCAAUAUUACGCCUU | -1.96 ± 0.18 | -1.28 ± 0.19
28 | UUAAAGCAAUAUUACGCGCA | -0.137 ± 0.072 | -0.0874 ± 0.1
29 | UUAAAGCAAUAUUACGCUCA | 0.0308 ± 0.097 | 0.489 ± 0.14
30 | UUAAAGCAAUAUUACGCUGA | -0.633 ± 0.098 | -0.46 ± 0.14
31 | UUAAAGCAAUAUUACGCUGG | -0.4 ± 0.11 | -0.152 ± 0.12
32 | UUAAAGCAAUAUUACGGAAG | -1.67 ± 0.087 | -0.452 ± 0.11
33 | UUAAAGCAAUAUUACGGACU | -0.204 ± 0.096 | -0.0989 ± 0.11
34 | UUAAAGCAAUAUUACGGAGG | -1.34 ± 0.12 | -1.27 ± 0.17
35 | UUAAAGCAAUAUUACGGAUG | -0.473 ± 0.074 | -0.418 ± 0.1
36 | UUAAAGCAAUAUUACGGCAG | 0.129 ± 0.086 | 0.214 ± 0.11
37 | UUAAAGCAAUAUUACGGCCU | -0.459 ± 0.12 | 0.567 ± 0.16
38 | UUAAAGCAAUAUUACGGGUC | -3.44 ± 0.22 | -2.48 ± 0.24
39 | UUAAAGCAAUAUUACGGUAG | -0.312 ± 0.076 | 0.29 ± 0.11
40 | UUAAAGCAAUAUUACGGUGU | -2.73 ± 0.11 | -1.29 ± 0.1
41 | UUAAAGCAAUAUUACGGUUU | -2.12 ± 0.075 | -1.22 ± 0.097
42 | UUAAAGCAAUAUUACGUGAC | -1.93 ± 0.15 | -1.91 ± 0.18
43 | UUAAAGCAAUAUUACGUGAG | -0.984 ± 0.063 | -0.201 ± 0.1
44 | UUAAAGCAAUAUUACGUGCC | -0.9 ± 0.11 | -0.509 ± 0.16
45 | UUACAGCAAUAUUACGAAAC | -2.85 ± 0.33 | -2.49 ± 0.41
46 | UUACAGCAAUAUUACGAACC | -1.61 ± 0.4 | –
47 | UUACAGCAAUAUUACGAAUA | -2.6 ± 0.3 | -1.03 ± 0.2
48 | UUACAGCAAUAUUACGACCG | -0.642 ± 0.091 | -0.0873 ± 0.13
